Among the data in paper PMC8597880 are Kd values, retold here.

Common to all, as to assay: BLI
Background: BLI is a label-free optical method that tracks binding on a fibre tip over time.

Experiment [1] addresses recombinant SARS-CoV-2 RBD B.1.1.7/N501Y (SARS-CoV-2, Alpha (B.1.1.7) RBD with N501Y).
The target in experiment [2] is recombinant SARS-CoV-2 RBD B.1.617.2/L452R, T478K (SARS-CoV-2, B.1.617.2 (Delta), RBD L452R, T478K).
Experiment [3] deals with recombinant SARS-CoV-2 RBD B.1.351/K417N, E484K, N501Y (SARS-CoV-2, B.1.351 (Beta), RBD K417N, E484K, N501Y).
Experiment [4] concerns the target recombinant SARS-CoV-2 RBD P.1/K417T, E484K, N501Y (SARS-CoV-2, P.1 (Gamma), RBD K417T, E484K, N501Y).

One may read the Kd as the concentration at which binding is half-saturated. For the substance NIH-CoVnb-112 (VHH), the Kd in experiment [1] is 3 nM; in experiment [2] it was 1.66 nM; in experiment [3] it was 4.28 nM; in experiment [4] it was 4.16 nM.
